Reference: patent publication US20180022794A1

Target: endogenous active RhoA (RhoA-GTP) of HeLa S3 cells (UniProt P61586)
Experiment: cell-based or functional assay

Sequence of endogenous active RhoA (RhoA-GTP) of HeLa S3 cells (P61586 1-190 limits assumed): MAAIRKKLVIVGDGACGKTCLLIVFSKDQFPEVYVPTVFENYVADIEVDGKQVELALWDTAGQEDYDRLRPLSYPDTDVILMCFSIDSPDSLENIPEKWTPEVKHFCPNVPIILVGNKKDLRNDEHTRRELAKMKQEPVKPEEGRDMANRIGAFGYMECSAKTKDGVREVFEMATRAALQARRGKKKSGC

B1: F-H12 (VHH, part only; not given: Fbox domain and myc tag, not shown: small tags and cut ends)
chain, part: VQLQASGGGFVQPGGSLRLSCAASGDGSRIYAMGWFRQAPGKEREFVSAISWEQDWEHYYADSVKGRFTISRDNSKNTVYLQMNSLRAEDTATYYCAAFMTPHRNLTSMYWGQGTQVTVSS
RhoA-GTP level after 15 min of EGF treatment (GST-RBD pull down): 50%
